Data published in patent US20150259419A1 (PROTHENA BIOSCIENCES, published 2015).

T1: human MCAM domain 1 (MCAMhFc domain construct) (human, UniProt P43121 19-129)
T1 construct: also called amino acids 19-129; not shown: human Fc portion (captured on anti-human IgG Fc biosensors)
T1 sequence: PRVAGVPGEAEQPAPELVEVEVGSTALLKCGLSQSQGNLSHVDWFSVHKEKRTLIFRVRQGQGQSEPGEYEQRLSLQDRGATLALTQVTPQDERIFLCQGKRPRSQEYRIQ

T2: human MCAM, full length, expressed on transfected cells (human, UniProt P43121 24-646)
T2 construct: CHO cells transfected with the full length human MCAM gene; also called hMCAM; CD146
T2 chain: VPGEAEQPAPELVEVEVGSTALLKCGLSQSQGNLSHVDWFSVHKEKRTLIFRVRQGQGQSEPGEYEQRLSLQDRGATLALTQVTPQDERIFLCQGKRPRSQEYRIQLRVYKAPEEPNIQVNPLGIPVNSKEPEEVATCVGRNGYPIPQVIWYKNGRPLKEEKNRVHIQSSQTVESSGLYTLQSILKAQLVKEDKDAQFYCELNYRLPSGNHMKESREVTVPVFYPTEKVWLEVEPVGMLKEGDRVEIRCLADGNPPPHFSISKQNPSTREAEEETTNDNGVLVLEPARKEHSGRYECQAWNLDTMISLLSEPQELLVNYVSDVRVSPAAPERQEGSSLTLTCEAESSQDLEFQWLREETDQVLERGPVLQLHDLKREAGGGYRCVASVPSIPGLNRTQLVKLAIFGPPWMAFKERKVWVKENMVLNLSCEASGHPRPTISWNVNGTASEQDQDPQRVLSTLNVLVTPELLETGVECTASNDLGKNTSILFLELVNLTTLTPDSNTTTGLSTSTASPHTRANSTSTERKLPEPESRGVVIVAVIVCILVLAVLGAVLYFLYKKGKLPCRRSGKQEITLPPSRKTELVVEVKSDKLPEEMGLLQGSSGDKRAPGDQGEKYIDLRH

T3: full length MCAMhFc protein (extracellular domain of human MCAM fused to human IgG) (human, UniProt P43121 24-559)
T3 construct: also called hMCAM-Fc; Human MCAM-Fc protein; not shown: human IgG (Fc) portion
T3 chain: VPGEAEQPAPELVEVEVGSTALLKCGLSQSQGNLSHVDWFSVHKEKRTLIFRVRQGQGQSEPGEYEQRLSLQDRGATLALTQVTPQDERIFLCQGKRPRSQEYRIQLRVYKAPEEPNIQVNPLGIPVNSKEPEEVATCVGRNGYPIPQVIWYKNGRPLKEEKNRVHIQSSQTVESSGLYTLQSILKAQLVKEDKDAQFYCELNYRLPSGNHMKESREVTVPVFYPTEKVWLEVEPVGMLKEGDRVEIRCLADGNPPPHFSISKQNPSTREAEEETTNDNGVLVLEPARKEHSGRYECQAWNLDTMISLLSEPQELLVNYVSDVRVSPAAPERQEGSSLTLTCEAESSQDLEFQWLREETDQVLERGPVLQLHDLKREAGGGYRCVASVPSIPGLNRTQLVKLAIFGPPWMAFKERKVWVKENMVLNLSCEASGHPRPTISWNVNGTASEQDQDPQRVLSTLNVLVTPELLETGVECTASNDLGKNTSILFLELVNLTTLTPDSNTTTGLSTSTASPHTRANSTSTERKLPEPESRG

T4: human MCAM domain 2 (MCAMhFc domain construct) (human, UniProt P43121 139-242)
T4 construct: not shown: human Fc portion
T4 sequence: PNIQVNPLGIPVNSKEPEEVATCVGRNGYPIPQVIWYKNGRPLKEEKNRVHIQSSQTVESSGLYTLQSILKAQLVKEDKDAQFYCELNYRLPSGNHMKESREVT

T5: combination of human MCAM domains 1 and 2 (MCAMhFc domain construct) (human, UniProt P43121 19-242)
T5 construct: not shown: human Fc portion
T5 sequence: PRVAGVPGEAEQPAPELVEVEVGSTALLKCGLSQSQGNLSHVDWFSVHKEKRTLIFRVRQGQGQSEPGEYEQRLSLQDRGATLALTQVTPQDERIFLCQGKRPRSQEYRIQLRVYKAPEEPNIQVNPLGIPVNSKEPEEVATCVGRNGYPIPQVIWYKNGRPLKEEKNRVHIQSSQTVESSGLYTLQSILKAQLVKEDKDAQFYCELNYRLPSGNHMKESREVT

T6: human MCAM domain 3 (MCAMhFc domain construct) (human, UniProt P43121 244-321)
T6 construct: also called amino acids 244-321; not shown: human Fc portion
T6 sequence: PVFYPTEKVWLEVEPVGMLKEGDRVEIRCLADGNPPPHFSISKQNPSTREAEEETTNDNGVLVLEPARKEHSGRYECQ


Columns and labels:
[1] = target: T1, human MCAM domain 1 (MCAMhFc domain …); experiment: ForteBio Octet Red, MCAMhFc domains on anti-human IgG Fc biosensors
Text: (§1) The following protocol was used: ForteBio anti-human IgG Fc biosensors were used to immobilize various MCAMhFc domains including full length MCAMhFc protein on to biosensor surface. […] After loading these samples into a black 96 well plate, the Octet Red was programmed as follows: 60 seconds for baseline #1; 180 seconds for loading various domains; 60 seconds for baseline #2; 180 seconds for association of antibody to domain; and 240 seconds for dissociation of antibody from domain.
(§2) 1. MCAMhFc final concentration@5 ug/ml [0374] […] 3. ForteBio anti-human IgG Fc Capture (AHC) biosensors for kinetics experiments, cat #18-5060 [0376] 4. Block 96 well plate from Greiner Bio-one, cat #655209 [0377] 5. ForteBio Octet Red machine [0378] 6. Fresh tissue culture medium, DMEM with 20% FCS, was used as buffer for dilution

[2] = target: T2, human MCAM, full length, expressed on …; experiment: blocking of laminin 411 (20 ug/ml) binding to CHO cells expressing human MCAM, flow cytometry
Experimental: The 87 independent mouse fusion clones and 26 independent rat fusion clones described in Example 1 above as being capable of (i) binding to human MCAM, and (ii) blocking the interaction between human MCAM and the α-4 chain of laminin were further characterized as follows. First, IC50 quantitation for the ability of the monoclonal antibody to block the binding of human MCAM to the α-4 chain of laminin was determined as follows. CHO cells expressing human MCAM were incubated with an anti-human MCAM antibody (at various concentrations) for 30 minutes at 4 degrees Celsius. […] Unbound laminin was then washed away, and the laminin bound to the surface of the cells was detected with fluorescently labeled anti-laminin antibodies. After washing, the amount of laminin bound to the surface was detected by flow cytometry, and IC50s were calculated based on the mean fluorescent intensity.
Amino acid and nucleic acid sequences of the heavy and light chains of these antibodies, and their hypervariable regions, are provided in SEQ ID NOs:29-92. […] As such, each of these specific monoclonal antibodies was very capable of binding to human MCAM and inhibiting the interaction of cell-expressed human MCAM with its α-4 laminin binding ligand.

[3] = target: T3, full length MCAMhFc protein …; experiment: summary of Examples 2 and 3
[4] = target: T4, human MCAM domain 2 (MCAMhFc domain …); experiment: ForteBio Octet Red, MCAMhFc domains on anti-human IgG Fc biosensors
Text: as §1, §2

[5] = target: T5, combination of human MCAM domains 1 and …; experiment: as above
Text: as §1, §2

[6] = target: T6, human MCAM domain 3 (MCAMhFc domain …); experiment: ForteBio Octet Red, MCAMhFc domains on anti-human IgG Fc biosensors, antibody at 5 ug/ml
Text: as §1, §2

Row | binding result [1] | IC50 [2] | binding result [3] | binding result [4] | binding result [5] | binding result [6] | Binder
1 | no binding (tested: 5 ug/ml) | 0.29 µg/mL | – | – | – | – | rat anti-human MCAM monoclonal antibody clone 2107.4.10 (antibody, V domains shown) VH: QVQLKESGPGLVQSSQTLSLTCTVSGFSLTSNGVSWVRQPPGKGLEWIAAISSGGSTYYNSAFKSRLSISRNTSKSQVLLKMNSLQTEDTGMYFCARHRPFYFDYWGQGVMVTVSS VL: DIQVTQSPSLLSASVGDRVTLNCKGSQNIYKSLAWFRLKRGEAPKLLIYDANSLQTGIPSRFSGSGSGTDFTLTITSLQPEDVATYFCQQYYSGYTFGAGTKLELK
2 | no binding (tested: 5 ug/ml) | 0.469 µg/mL | binds | no binding (tested: 5 ug/ml) | no binding (tested: 5 ug/ml) | binds | mouse anti-human MCAM monoclonal antibody clone 1174.1.3 (antibody, V domains shown, Mouse hybridoma antibody) VH: QIQLVQSGPELKKPGETVKISCKASGYTFTNYGMNWVKQAPGKGLKWMGWINTYTGEPTYADDFKGRFALSLETSASTAYLQINNLKNEDMATYFCARYRYNKYERAMDYWGQGTSVTVSS VL: DIVLTQSPASLAVSLGQRATISCRASKSVSTSGYSYMYWYQQKPGQPPKLLIYLASNLESGVPARFSGSGSGTDFTLNIHPVEEEDAATYYCQHSRELPFTFGSGTKLEIK
3 | no binding (tested: 5 ug/ml) | 0.431 µg/mL | binds | no binding (tested: 5 ug/ml) | no binding (tested: 5 ug/ml) | binds | mouse anti-human MCAM monoclonal antibody clone 1414.1.2 (antibody, V domains shown, Mouse hybridoma antibody) VH: EIQLQQTGPELVKPGASVKISCKASGYSFTDYIMLWVKQSHGKSLEWIGNINPYSGSSGYNLKFKGKATLTVDKSSSTAYMQLNSLTSEDSAVYYCARGKDFAMDYWGQGTSVTVSS VL: DIVMSQSPSSLAVSAGEKVTMSCKSSQSLLNSSTRKNFLAWYQQKPGQSPKLLIYWASTRESGVPDRFTGSGSGTDFTLTISSVQAEDLAVYYCKQSYNRYTFGGGTKLEIK
